Experimental data published in patent US20060263354A1 (published 2006).

B1: 2-43-1 (antibody, V domains shown)
VH: EVQLLESGGGLVQPGGSLRLSCAASGFTFSSYAMSWVRQAPGKGLEWVSAISGSGGSTFYADSVTGRFTISRDNSKNTLFLQLNSLRAEDTAVYHCAKDGRFNWNYGASDIWGQGTMVTVSS
VL: EIVMTQSPATLSVSPGERATLSCRTSQSVSSNLAWYQQKPGQAPRLLIYGASTRATGIPARFSGSGSGTEFTLTISSLQSEDFAVYYCQQYNNWPLTFGGGTKVEIKR
B2: 2-112-1 (antibody, V domains shown)
VH: EVQLLESGGGLIQPGGSLRLSCAASGFTFSSFAMSWVRQAPGKGLEWVSTISGSGGYTFYADSVKGRFTISRDNSKNTLYLQMNSLRAEDTAVYYCAKDGRYNWNYGAFDIWGQGTMVTVSS
VL: EIVMTQSPATLSVSPGERATLSCRASQSVSSNLAWYQQKPGQAPRLLIYGASTRATGFPARFSGSGSGTEFTLTISSLQSEDFAIYYCQQYNNWPLTFGGGTKVEIKR
B3: 2-177-1 (antibody, V domains shown)
VH: EVQLLESGGGLIQPGGSLRLSCAASGFTFSSFAMSWVRQAPGKGLEWVSTISGSGGSTYYADFVKGRFTISRDNSKNTLYLQMNSLRAEDTAVYYCAKDGRYNWNYGAFDIWGQGTMVTVSS
VL: EIVMTQSPATLSVSPGERATLSCRASQSVRSNLAWFQQKPGQAPRLLIYGASTRATGIPARFSGSGSGTEFTLTISSLQSEDFAVYYCQQYNNWPLTFGGGTKVEIKR
B4: 1-257-1 (antibody, V domains shown)
VH: EVQLVESGGGLVKPGGSLRLSCAASGFTFSSYSMNWVRQAPGKGLEWVSSISSSSSYIYYADSVKGRFTISRDNAKNSLYLQMNSLRAEDTAVYYCARDRGYYYGMDVWGQGTTVTVSS
VL: DIQMTQSPSSLSASVGDRVTLTCRASQGIRNALGWYQQKPGKAPKRLIYGASSLQSGVPSRFSGSGSGTEFTLTISSLQPEDFATYYCLQHNSYPFTFGPGTKVDIKR
B5: 1-314-1 (antibody, V domains shown)
VH: EVQLVESGGGLVKPGGSLRLSCAASGFTFSSYSMNWVRQAPGKGLEWVSSISSSSSYIYYADSVKGRFTISRDNAKNSLYLQMNSLRAEDTTVYYCARDRGYLYGMDVWGQGTTVTVSS
VL: DIQMTQSPSSLSASVGDRVTITCRASQAIRNDLGWYQQKPGKAPKRLIYAASSLQSGVPSRFSGSGSGTEFTLTISSLQPEDFATYYCLQHNSYPRTFGQGTKVEIKR
B6: 1-116-1 (antibody, V domains shown)
VH: EVQLVESGGGLVKPGGSLRLSCAASGFTFSSYSMNWVRQAPGKGLEWVSSISSSSSYIYYADSVKGRFTISRDNAKNSLYLQMNSLRAEDTAVYYCARDRGYSYGLDYWGQGTLVTVSS
VL: DIQMTQSPSSLSASVGDRVTITCRASQGIRNALGWYQQKPGKAPQRLIYAASSLQSGVPSRFSGSGSGTEFTLTISSLQPEDFATYYCLQHNSYPRTFGQGTKVEIKR
B7: 1-136-3 (antibody, V domains shown)
VH: EVQLVESGGGLVKPGGSLRLSCAASGFTFSSYSMNWVRQAPGKGLEWVSSISSSSSYIYYADSVKGRFTISRDNAKNSLYLQMNSLRAEDTAVYYCARDRGYSYGIDYWGQGTLVTVSS
VL: DIQMTQSPSSLSASVGDRVTITCRASQGIRNALGWYQQKPGKAPKRLIYAASSLQSGVPSRFSGSGSGTEFTLTISSLQPEDFATYYCLQHNSYPRTFGQGTKVEIKR
B8: 1-268-1 (antibody, V domains shown)
VH: EVQLVESGGGLVKPGGSLRLSCAASGFTFSSYSMNWVRQAPGKGLEWVSSISSSSSYIYYADSVKGRFTISRDNAKNSLYLQMNSLRAEDTAVYYCARDRGSYFLFDYWGQGTLVTVSS
VL: DMQMTQSPSSLSASVGDRVTITCRASQGIRNDLGWYQQKPGKAPKRLIYGASSLQSGVPSRFSGSGSGTEFTLTISSLQPEDSATYYCLQHNSYPLTFGGGTKVEIKR
B9: 1-66-1 (antibody, V domains shown)
VH: EVQLVESGGGLVKPGGSLRLSCAASGFTFSSYSMNWVRQAPGKGLEWVSSISSSSSYIYYADSVKGRFTISRDNAKNSLYLQMNSLRAEDTAVYYCARDRGYSYGLDYWGQGTLVTVSS
VL: DIQMTQSPSSLSASVGDRVTITCRASQGIRNDLGWYQQKPGKAPKRLIYAASSLQSGVPSRFSGSGSGTEFTLTISSLQPEDFATYYCLQLNSYPFTFGPGTKVDIKR

The binders below were run against mature GDF8 (UniProt O14793 267-375) (assay: BIAcore).
mature GDF8, sequence (O14793 267-375): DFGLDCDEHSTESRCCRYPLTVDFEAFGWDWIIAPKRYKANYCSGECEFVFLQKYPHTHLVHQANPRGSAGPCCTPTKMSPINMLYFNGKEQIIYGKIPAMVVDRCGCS
Binder B1 has a Kd of 1.5 nM.
For B2, the Kd was 0.011 nM.
In the case of B3, the Kd is reported as 0.89 nM.
Binder B4 has a Kd of 0.16 nM.
In the case of B5, the Kd is reported as 0.11 nM.
B6 gave a Kd of 0.012 nM.
B7 gave a Kd of 0.043 nM.
With B8 the Kd was 0.24 nM.
With B9 the Kd was 0.083 nM.
